Experimental data published in IntAct's records for PubMed 32851177.

B1: Osteopetrosis-associated transmembrane protein 1 (Homo sapiens), Q86WC4 (parent)
chain: MEPGPTAAQRRCSLPPWLPLGLLLWSGLALGALPFGSSPHRVFHDLLSEQQLLEVEDLSLSLLQGGGLGPLSLPPDLPDLDPECRELLLDFANSSAELTGCLVRSARPVRLCQTCYPLFQQVVSKMDNISRAAGNTSESQSCARSLLMADRMQIVVILSEFFNTTWQEANCANCLTNNSEELSNSTVYFLNLFNHTLTCFEHNLQGNAHSLLQTKNYSEVCKNCREAYKTLSSLYSEMQKMNELENKAEPGTHLCIDVEDAMNITRKLWSRTFNCSVPCSDTVPVIAVSVFILFLPVVFYLSSFLHSEQKKRKLILPKRLKSSTSFANIQENSN
partner: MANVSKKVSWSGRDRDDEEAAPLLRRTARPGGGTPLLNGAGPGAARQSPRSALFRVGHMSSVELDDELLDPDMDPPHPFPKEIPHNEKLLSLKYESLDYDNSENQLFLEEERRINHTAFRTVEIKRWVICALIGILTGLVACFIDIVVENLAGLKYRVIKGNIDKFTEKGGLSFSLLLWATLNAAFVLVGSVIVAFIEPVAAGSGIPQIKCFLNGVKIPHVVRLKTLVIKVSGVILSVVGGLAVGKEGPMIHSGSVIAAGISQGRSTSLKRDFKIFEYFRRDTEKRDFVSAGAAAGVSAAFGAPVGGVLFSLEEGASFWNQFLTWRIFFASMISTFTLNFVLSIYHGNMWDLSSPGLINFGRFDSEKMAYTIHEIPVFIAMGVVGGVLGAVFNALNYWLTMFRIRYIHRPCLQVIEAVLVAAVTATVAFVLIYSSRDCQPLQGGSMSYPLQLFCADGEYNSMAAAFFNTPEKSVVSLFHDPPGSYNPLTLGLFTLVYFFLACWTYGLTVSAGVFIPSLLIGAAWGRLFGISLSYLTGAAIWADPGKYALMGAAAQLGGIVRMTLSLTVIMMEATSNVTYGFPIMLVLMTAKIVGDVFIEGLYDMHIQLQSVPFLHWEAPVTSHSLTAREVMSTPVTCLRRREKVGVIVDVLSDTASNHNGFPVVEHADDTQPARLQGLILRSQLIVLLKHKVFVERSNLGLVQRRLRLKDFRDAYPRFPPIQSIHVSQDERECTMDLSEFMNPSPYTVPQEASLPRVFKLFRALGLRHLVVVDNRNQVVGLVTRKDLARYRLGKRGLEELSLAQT

Variants of: B1
Settings: with clcn7_human CLCN7, P51798

effect of a mutation on the interaction | Variant
decreasing interaction strength | MEPGPTAAQRRCSLPPWLPLGLLLWSGLALGALPFGSSPHRVFHDLLSEQQLLEVEDLSLSLLQGGGLGPLSLPPDLPDLDPECRELLLDFANSSAELTGCLVRSARPVRLCQTCYPLFQQVVSKMDNISRAAGNTSESQSCARSLLMADRMQIVVILSEFFNTTWQEANCANCLTNNSEELSNSTVYFLNLFNHTLTCFEHNLQGNAHSLLQTKNYSEVCKNCREAYKTLSSLYSEMQKMNELENKAEPGTHLCIDVEDAMNITRKLWSRTFNCSVPCSDTVPVIAVSVFILFLPVVFALSSFLHSEQKKRKLILPKRLKSSTSFANIQENSN [Y300A]
